According to the supplement of paper PMC7125110:
± gives the standard error. For some of these results: This sample holds only a part of the variants without activity.

B1: glmS ribozyme (parent)
chain: AUAAAAGCGCCAGAACUACAGAAAUGUAGUUGACGAGGAGGAGGUUUAUCGAAUUUUCGGCGGAUGCCUCCAAA

How the values were obtained:
Conditions in all cases: with glucosamine-6-phosphate
glucosamine-6-phosphate [1] = variants of: B1; assay: kcat; higher = faster cleavage; RNA array
How it was run: (§1)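 Glucosamine-6-phosphate (40 μM to 10 mM) in HEPES/KCl/Mg(OAc)2 buffer was flowed over sequenced MiSeq chips, and tiles were imaged over ~14 h. Barcoded ribozyme variants there had been transcribed in situ by E. coli RNA polymerase and were tracked through a hybridised Cy3 probe at 37 °C. One- or two-exponential decay fits to per-tile medians, normalised to baseline and to non-cleaving reference variants, gave kobs. kcat and KM came from weighted Michaelis–Menten fits across concentrations.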

glucosamine-6-phosphate [2] = variants of: B1; assay: self-cleavage kobs at 40 uM GlcN6P; higher = faster cleavage; RNA array
How it was run: as §1

glucosamine-6-phosphate [3] = variants of: B1; assay: self-cleavage kobs at 160 uM GlcN6P; higher = faster cleavage; RNA array
How it was run: as §1

glucosamine-6-phosphate [4] = variants of: B1; assay: self-cleavage kobs at 640 uM GlcN6P; higher = faster cleavage; RNA array
How it was run: as §1

glucosamine-6-phosphate [5] = variants of: B1; assay: self-cleavage kobs at 2500 uM GlcN6P; higher = faster cleavage; RNA array
How it was run: as §1

glucosamine-6-phosphate [6] = variants of: B1; assay: self-cleavage kobs at 10000 uM GlcN6P; higher = faster cleavage; RNA array
How it was run: as §1

glucosamine-6-phosphate [7] = variants of: B1; assay: KM; higher = weaker cofactor use; RNA array
How it was run: as §1

Row | Variant | kcat (glucosamine-6-phosphate [1]) | self-cleavage kobs at 40 uM GlcN6P (glucosamine-6-phosphate [2]) | self-cleavage kobs at 160 uM GlcN6P (glucosamine-6-phosphate [3]) | self-cleavage kobs at 640 uM GlcN6P (glucosamine-6-phosphate [4]) | self-cleavage kobs at 2500 uM GlcN6P (glucosamine-6-phosphate [5]) | self-cleavage kobs at 10000 uM GlcN6P (glucosamine-6-phosphate [6]) | KM (glucosamine-6-phosphate [7])
1 | A42G C70U | 0.0228 ± 0.01 s⁻¹ | 0.000696 ± 0.0001 s⁻¹ | 0.00157 ± 0.00029 s⁻¹ | 0.00975 ± 0.0019 s⁻¹ | 0.0261 ± 0.01 s⁻¹ | 0.0178 ± 0.0045 s⁻¹ | –
2 | G37C A53G | 3.88e-05 ± 1.1e-05 s⁻¹ | < 1e-05 s⁻¹ | – | – | 5.73e-05 ± 1.6e-05 s⁻¹ | 3.11e-05 ± 1.1e-05 s⁻¹ | –
3 | G41A A53U | 0.000693 ± 8.4e-05 s⁻¹ | 5.42e-05 ± 9e-06 s⁻¹ | 0.00012 ± 3.1e-05 s⁻¹ | 0.000358 ± 5.8e-05 s⁻¹ | 0.00063 ± 0.00014 s⁻¹ | 0.000656 ± 0.0001 s⁻¹ | 562 ± 120 µM
4 | G41A A53C | 0.000213 ± 5.7e-05 s⁻¹ | – | – | 8.67e-05 ± 2.5e-05 s⁻¹ | 0.000101 ± 2.7e-05 s⁻¹ | 0.000202 ± 3.9e-05 s⁻¹ | –
5 | G37A U46A | 0.000136 ± 4.3e-06 s⁻¹ | < 1e-05 s⁻¹ | – | 2.37e-05 ± 7.5e-06 s⁻¹ | 6.45e-05 ± 7.8e-06 s⁻¹ | 0.000105 ± 1.1e-05 s⁻¹ | 2840 ± 210 µM
6 | G41U U47G | 0.00121 ± 0.0005 s⁻¹ | 4.35e-05 ± 1.2e-05 s⁻¹ | 3.94e-05 ± 1.2e-05 s⁻¹ | 0.000221 ± 4.5e-05 s⁻¹ | 0.000364 ± 8.6e-05 s⁻¹ | 0.00093 ± 0.00013 s⁻¹ | –
7 | G41U U47A | 0.000627 ± 0.00021 s⁻¹ | 7.19e-05 ± 1.3e-05 s⁻¹ | 0.000127 ± 3.9e-05 s⁻¹ | 0.000232 ± 5.2e-05 s⁻¹ | 0.000656 ± 0.00012 s⁻¹ | 0.000706 ± 0.00012 s⁻¹ | –
8 | G37C C70U | 2.69e-05 ± 6.4e-06 s⁻¹ | – | – | 2.26e-05 ± 9.4e-06 s⁻¹ | 1.7e-05 ± 5.8e-06 s⁻¹ | 3.18e-05 ± 7.2e-06 s⁻¹ | –
9 | G41U G66A | 0.00293 ± 0.00055 s⁻¹ | 7.21e-05 ± 1.7e-05 s⁻¹ | 0.000253 ± 7.9e-05 s⁻¹ | 0.000701 ± 0.00023 s⁻¹ | 0.00141 ± 0.00028 s⁻¹ | 0.00299 ± 0.00054 s⁻¹ | 1820 ± 560 µM
10 | A39U U45G | 0.00909 ± 0.0007 s⁻¹ | 0.000146 ± 2e-05 s⁻¹ | 0.000471 ± 8.8e-05 s⁻¹ | 0.00165 ± 0.00028 s⁻¹ | 0.00481 ± 0.00079 s⁻¹ | 0.00711 ± 0.00075 s⁻¹ | 2650 ± 300 µM
11 | G38U C58U U69G | 0.000168 ± 1.3e-05 s⁻¹ | 0.000148 ± 4.2e-05 s⁻¹ | 0.000207 ± 5.2e-05 s⁻¹ | 0.000157 ± 2.8e-05 s⁻¹ | 0.000189 ± 6.3e-05 s⁻¹ | 0.000156 ± 4.9e-05 s⁻¹ | –
12 | A42G U45A | 0.0167 ± 0.0051 s⁻¹ | 0.00181 ± 0.00058 s⁻¹ | 0.00634 ± 0.0022 s⁻¹ | – | – | – | 303 ± 130 µM
13 | G40C A42U | 3.99e-05 ± 4.6e-06 s⁻¹ | – | – | – | 4.68e-05 ± 2.2e-05 s⁻¹ | 3.64e-05 ± 1.1e-05 s⁻¹ | –
14 | G37U C61U | < 1e-05 s⁻¹ | – | – | – | – | – | –
15 | A42C C67G | 8.04e-05 ± 1.5e-05 s⁻¹ | – | – | – | 6.32e-05 ± 1.4e-05 s⁻¹ | 6.4e-05 ± 4.6e-06 s⁻¹ | –
16 | G41C A42G | 0.00017 ± 1e-05 s⁻¹ | – | – | 6.25e-05 ± 1e-05 s⁻¹ | 0.000107 ± 1.5e-05 s⁻¹ | 0.000158 ± 1.9e-05 s⁻¹ | 1210 ± 190 µM

Row | Variant | kcat (glucosamine-6-phosphate [1]) | self-cleavage kobs at 40 uM GlcN6P (glucosamine-6-phosphate [2]) | self-cleavage kobs at 160 uM GlcN6P (glucosamine-6-phosphate [3]) | self-cleavage kobs at 640 uM GlcN6P (glucosamine-6-phosphate [4]) | self-cleavage kobs at 2500 uM GlcN6P (glucosamine-6-phosphate [5]) | self-cleavage kobs at 10000 uM GlcN6P (glucosamine-6-phosphate [6]) | KM (glucosamine-6-phosphate [7])
17 | G41C A42U | 4.23e-05 ± 1.3e-06 s⁻¹ | – | < 1e-05 s⁻¹ | – | – | 3.82e-05 ± 6.7e-06 s⁻¹ | 1050 ± 290 µM
18 | A39G G40U | 0.0022 ± 0.00044 s⁻¹ | 9.64e-05 ± 1.6e-05 s⁻¹ | 0.000207 ± 4.9e-05 s⁻¹ | 0.000551 ± 8.8e-05 s⁻¹ | 0.0015 ± 0.00022 s⁻¹ | 0.00197 ± 0.00022 s⁻¹ | 1420 ± 510 µM
19 | A42U G43U C61A | 2.03e-05 ± 2.4e-06 s⁻¹ | – | – | – | – | – | –
20 | A39C A64U | 1.4e-05 ± 2.1e-06 s⁻¹ | – | – | – | – | – | –
21 | G40C U46C | 0.00119 ± 0.00012 s⁻¹ | – | 9.41e-05 ± 1.9e-05 s⁻¹ | 0.000304 ± 6.3e-05 s⁻¹ | 0.000729 ± 0.00014 s⁻¹ | 0.000967 ± 0.00024 s⁻¹ | 1800 ± 280 µM
22 | A36U U69A | 4.58e-05 ± 1.6e-05 s⁻¹ | 5.11e-05 ± 1.6e-05 s⁻¹ | – | – | 7.35e-05 ± 2.7e-05 s⁻¹ | – | –
23 | A39U U69G | 6.87e-05 ± 1e-05 s⁻¹ | – | – | 4.85e-05 ± 1.5e-05 s⁻¹ | 4.76e-05 ± 1.3e-05 s⁻¹ | 7.29e-05 ± 1.5e-05 s⁻¹ | –
24 | A39U U46G | 0.00673 ± 0.0011 s⁻¹ | 5.61e-05 ± 1.4e-05 s⁻¹ | 0.000227 ± 6.1e-05 s⁻¹ | 0.000968 ± 0.00018 s⁻¹ | 0.0023 ± 0.00049 s⁻¹ | 0.00476 ± 0.0014 s⁻¹ | 4400 ± 920 µM
25 | G41U U45G | 0.000293 ± 5.4e-05 s⁻¹ | – | 3.13e-05 ± 1.4e-05 s⁻¹ | 0.000129 ± 1.7e-05 s⁻¹ | 0.000339 ± 9.1e-05 s⁻¹ | 0.000243 ± 4.4e-05 s⁻¹ | 909 ± 340 µM
26 | G40A U65G | 0.00247 ± 0.00015 s⁻¹ | 3.72e-05 ± 1.4e-05 s⁻¹ | – | 0.000421 ± 0.0001 s⁻¹ | 0.00107 ± 0.00028 s⁻¹ | 0.00192 ± 0.00028 s⁻¹ | 2990 ± 340 µM
27 | G40A U65A | 0.00131 ± 0.0003 s⁻¹ | 3.89e-05 ± 8.4e-06 s⁻¹ | 7.08e-05 ± 1.3e-05 s⁻¹ | 0.000213 ± 4.3e-05 s⁻¹ | 0.000615 ± 0.00011 s⁻¹ | 0.00106 ± 0.00012 s⁻¹ | 2690 ± 980 µM
28 | A42U C68G | 1.72e-05 ± 6.1e-06 s⁻¹ | – | – | – | – | – | –
29 | G41U U55C | 0.000532 ± 8.1e-05 s⁻¹ | – | 3.13e-05 ± 1.4e-05 s⁻¹ | 6.02e-05 ± 7.7e-06 s⁻¹ | 0.000181 ± 2e-05 s⁻¹ | 0.000359 ± 5.4e-05 s⁻¹ | 4870 ± 1100 µM
30 | G37A C71A | 0.000462 ± 4.6e-05 s⁻¹ | – | 5.16e-05 ± 2e-05 s⁻¹ | 0.000114 ± 2.7e-05 s⁻¹ | 0.000331 ± 4.6e-05 s⁻¹ | 0.000391 ± 3.8e-05 s⁻¹ | 1520 ± 410 µM
31 | A39U A42U | 0.00653 ± 0.0017 s⁻¹ | 0.000312 ± 7.2e-05 s⁻¹ | 0.000582 ± 8.8e-05 s⁻¹ | 0.00223 ± 0.00042 s⁻¹ | 0.00602 ± 0.0014 s⁻¹ | 0.00529 ± 0.00096 s⁻¹ | 1400 ± 530 µM
